For assay [1], the target named is Ang2-BD_(C1.70), yeast-displayed (human) (UniProt O15123). The assay is described as follows: flow cytometry on cells; Ang2-BD displayed on yeast, soluble Tie2-Fc in 20 mM Hepes pH 7.0, 150 mM NaCl, 1% BSA, 1 h at room temperature; detected with anti-human Fc FITC; binding MFI divided by expression MFI (c-Myc) and normalized to Ang2-BDWT. On the technique in general: Flow cytometry measures light scatter and fluorescence of single cells or particles in a stream.

Assay [2] addresses Ang2-BD_(C2.36), yeast-displayed (human) (UniProt O15123). The assay is described as above.
Assay [3] concerns the target T1, rhTie2 extracellular domain (human, UniProt Q02763 23-748).
T1 construct: receptor tyrosine kinase Tie2, recombinant human, extracellular domain; also called immobilized Tie2; recombinant soluble Tie2; source: bought: Sino Biological Inc
The assay can be described thus: SPR; ProteOn XPR36, rhTie2 extracellular domain amine-coupled to a GLC chip (2100 RU), Ang2-BD variants as analytes, 25°C, 20 mM Hepes pH 7.0, 150 mM NaCl, 1 mM CaCl2; steady state for Ang2-BDWT, two-state model for the variants. The following applies: both partners purified.

T1 sequence (Q02763 23-748): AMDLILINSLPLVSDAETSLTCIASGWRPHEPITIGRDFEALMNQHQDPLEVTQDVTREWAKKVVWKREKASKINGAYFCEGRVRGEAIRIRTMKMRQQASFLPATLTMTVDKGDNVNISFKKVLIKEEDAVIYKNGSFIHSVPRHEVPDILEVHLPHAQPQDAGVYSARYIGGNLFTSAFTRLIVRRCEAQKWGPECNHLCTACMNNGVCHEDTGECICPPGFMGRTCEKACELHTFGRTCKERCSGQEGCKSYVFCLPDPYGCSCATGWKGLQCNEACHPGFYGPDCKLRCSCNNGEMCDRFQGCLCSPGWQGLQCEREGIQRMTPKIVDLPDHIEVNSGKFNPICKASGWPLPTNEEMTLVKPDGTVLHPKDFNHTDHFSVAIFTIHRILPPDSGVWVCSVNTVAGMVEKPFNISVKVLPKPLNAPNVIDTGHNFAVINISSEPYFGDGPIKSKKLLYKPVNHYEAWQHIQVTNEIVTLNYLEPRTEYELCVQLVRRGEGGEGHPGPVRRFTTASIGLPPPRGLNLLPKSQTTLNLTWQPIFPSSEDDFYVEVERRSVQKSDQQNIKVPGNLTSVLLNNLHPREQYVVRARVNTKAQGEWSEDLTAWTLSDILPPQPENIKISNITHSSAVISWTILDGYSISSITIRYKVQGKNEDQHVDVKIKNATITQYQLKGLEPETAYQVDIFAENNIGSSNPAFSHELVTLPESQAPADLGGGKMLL

As to “Recombinant human Tie2 (Ala23-Lys745) Fc fusion, soluble Tie2-Fc (from UniProt Q02763 23-745)”, the fold increase in affinity relative to Ang2-BDWT in assay [1] worked out at 2.5 fold. The molecule also yielded a fold increase in binding affinity as compared to Ang2-BDWT in assay [2] of 17 fold.

B1: Ang2-BDWT, soluble (domain or fragment, human, UniProt O15123 281-496, looked up)
chain: FRDCAEVFKSGHTTNGIYTLTFPNSTEEIKAYCDMEAGGGGWTIIQRREDGSVDFQRTWKEYKVGFGNPSGEYWLGNEFVSQLTNQQRYVLKIHLKDWEGNEAYSLYEHFYLSSEELNYRIHLKGLTGTAGKISSISQPGNDFSTKDGDNDKCICKCSQMLTGGWWFDACGPSNLNGMYYPQRQNTNKFNGIKWYYWKGSGYSLKATTMMIRPADF
notes: N-linked carbohydrates removed with Endo Hf; also called wild-type Ang2-BD; parental Ang2-BD; source: Pichia pastoris GS115, purified from culture supernatant (HisTrap, Endo Hf treatment, Superdex 75); not shown: FLAG, N-terminal, kept
For the molecule B1, the dissociation constant (Kd) – broadly, the equilibrium constant for the complex coming apart – in assay [3] came to 434 nM.

For the origin of these results see PMC5464891, “Utilizing combinatorial engineering to develop Tie2 targeting antagonistic angiopoetin-2 ligands as candidates for anti-angiogenesis therapy” (Oncotarget, 2017).
